This passage reports binding signal (PBM E-score (-0.5 to 0.5)) results from paper PMC4434323.

For data set [1], the target named is gei-3 (T22H6.6) (Caenorhabditis elegans) (UniProt Q0G833).
In data set [2] the target is T1, tbx-38 (C24H11.3) (Caenorhabditis elegans) (UniProt Q9XVD5).
T1 sequence: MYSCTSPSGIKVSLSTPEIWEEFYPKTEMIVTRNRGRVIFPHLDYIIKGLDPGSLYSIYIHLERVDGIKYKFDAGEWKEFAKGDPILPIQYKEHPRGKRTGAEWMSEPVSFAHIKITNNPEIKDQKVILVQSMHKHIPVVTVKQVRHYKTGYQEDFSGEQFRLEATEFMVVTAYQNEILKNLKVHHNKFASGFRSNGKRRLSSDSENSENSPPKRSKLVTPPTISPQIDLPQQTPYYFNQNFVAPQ

Data set [3] has as its target T2, tbx-43 (Y46E12A.4) (Caenorhabditis elegans) (UniProt Q1T6W8).
T2 sequence: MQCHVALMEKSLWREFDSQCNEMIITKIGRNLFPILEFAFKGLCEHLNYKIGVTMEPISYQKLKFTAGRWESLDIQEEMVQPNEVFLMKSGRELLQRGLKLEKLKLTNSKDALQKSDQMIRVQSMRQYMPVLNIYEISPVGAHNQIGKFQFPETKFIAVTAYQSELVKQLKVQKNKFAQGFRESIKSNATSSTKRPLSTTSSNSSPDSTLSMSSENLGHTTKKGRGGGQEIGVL

For data set [4], the target named is T3, tbx-39 (Y73F8A.16) (Caenorhabditis elegans) (UniProt Q9NA56).
T3 sequence: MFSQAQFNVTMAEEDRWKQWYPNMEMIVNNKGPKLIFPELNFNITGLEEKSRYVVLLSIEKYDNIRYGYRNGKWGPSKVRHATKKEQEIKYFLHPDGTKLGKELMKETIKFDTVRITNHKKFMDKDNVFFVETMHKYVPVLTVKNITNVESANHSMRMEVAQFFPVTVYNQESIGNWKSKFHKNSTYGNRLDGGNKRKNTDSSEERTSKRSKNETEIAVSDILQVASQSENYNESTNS

The target of data set [5] is atf-7 (C07G2.2) (Caenorhabditis elegans) (UniProt Q86MD3).
In data set [6] the target is T4, zip-3 (W07G1.3) (Caenorhabditis elegans) (UniProt Q9XUK2).
T4 sequence: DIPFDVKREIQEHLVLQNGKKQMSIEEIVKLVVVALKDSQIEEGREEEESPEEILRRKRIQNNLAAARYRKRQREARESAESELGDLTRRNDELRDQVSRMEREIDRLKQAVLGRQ

The target in data set [7] is T5, atf-5 (T04C10.4) (Caenorhabditis elegans) (UniProt Q22156).
T5 sequence: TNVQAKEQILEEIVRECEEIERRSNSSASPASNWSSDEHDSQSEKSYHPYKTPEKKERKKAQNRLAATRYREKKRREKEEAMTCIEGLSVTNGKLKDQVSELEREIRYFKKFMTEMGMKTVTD

Data set [8] concerns the target T6, hlh-12 (C28C12.8) (Caenorhabditis elegans) (UniProt Q18277).
T6 sequence: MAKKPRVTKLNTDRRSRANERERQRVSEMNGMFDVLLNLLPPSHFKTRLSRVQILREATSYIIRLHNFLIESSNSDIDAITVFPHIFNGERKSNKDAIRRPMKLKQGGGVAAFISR

gei-3 (T22H6.6) (Caenorhabditis elegans), sequence (Q0G833 entry or part of it): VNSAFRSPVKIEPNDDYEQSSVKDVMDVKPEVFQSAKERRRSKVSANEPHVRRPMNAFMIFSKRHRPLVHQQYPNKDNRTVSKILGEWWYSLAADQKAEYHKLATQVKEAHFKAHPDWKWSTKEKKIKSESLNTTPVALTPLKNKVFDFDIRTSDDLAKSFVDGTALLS
atf-7 (C07G2.2) (Caenorhabditis elegans), sequence (Q86MD3 339-508): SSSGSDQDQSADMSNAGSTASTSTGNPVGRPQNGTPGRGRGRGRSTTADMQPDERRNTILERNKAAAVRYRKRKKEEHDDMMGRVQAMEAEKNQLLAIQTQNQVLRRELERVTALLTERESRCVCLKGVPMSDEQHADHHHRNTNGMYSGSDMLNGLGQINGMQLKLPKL

For the sequence “CATTGATA (double strand) [8-mer CATTGATA]”, in data set [1], the binding signal (PBM E-score (-0.5 to 0.5)) turned out to be 0.472.

Take “GGTGTGAA (double strand) [8-mer GGTGTGAA]”: the binding signal (PBM E-score (-0.5 to 0.5)) is 0.497 in data set [2] and 0.499 in data set [3].

The sequence “TGAATGAA (double strand) [8-mer TGAATGAA]” gave a binding signal (PBM E-score (-0.5 to 0.5)) in data set [1] of 0.491.

“CTAAGTTA (double strand) [8-mer CTAAGTTA]” registered a binding signal (PBM E-score (-0.5 to 0.5)) in data set [4] of 0.48.

On to “ATCAATGG (double strand) [8-mer ATCAATGG]”, for which, in data set [1], the binding signal (PBM E-score (-0.5 to 0.5)) came to 0.477.

In data set [2], “AAGTGTGA (double strand) [8-mer AAGTGTGA]” registered a binding signal (PBM E-score (-0.5 to 0.5)) of 0.494.

For the sequence “AACGTCAT (double strand) [8-mer AACGTCAT]”, the binding signal (PBM E-score (-0.5 to 0.5)) in data set [5] came to 0.495; in data set [6], 0.486.

For “GAGTGTGA (double strand) [8-mer GAGTGTGA]”, the binding signal (PBM E-score (-0.5 to 0.5)) in data set [2] came out at 0.484.

The sequence “AGATGACG (double strand) [8-mer AGATGACG]” gave a binding signal (PBM E-score (-0.5 to 0.5)) in data set [6] of 0.487.

With “AACTTGGC (double strand) [8-mer AACTTGGC]”, the binding signal (PBM E-score (-0.5 to 0.5)) in data set [4] was found to be 0.497.

In turn, “AAACTTGG (double strand) [8-mer AAACTTGG]” returned a binding signal (PBM E-score (-0.5 to 0.5)) in data set [4] of 0.487.

Regarding “TCAATGGA (double strand) [8-mer TCAATGGA]”, the binding signal (PBM E-score (-0.5 to 0.5)) in data set [1] was 0.473.

The sequence “ACTTGGCA (double strand) [8-mer ACTTGGCA]” returned a binding signal (PBM E-score (-0.5 to 0.5)) in data set [4] of 0.492.

As to “AGGTGTGA (double strand) [8-mer AGGTGTGA]”, the binding signal (PBM E-score (-0.5 to 0.5)) turned out to be 0.498 in data set [2] and 0.499 in data set [3].

In data set [4], “CTTGGCAC (double strand) [8-mer CTTGGCAC]” registered a binding signal (PBM E-score (-0.5 to 0.5)) of 0.477.

On to “GATGACGC (double strand) [8-mer GATGACGC]”, for which the binding signal (PBM E-score (-0.5 to 0.5)) in data set [6] is 0.493.

Consider “ATCAATGA (double strand) [8-mer ATCAATGA]”, for which the binding signal (PBM E-score (-0.5 to 0.5)) in data set [1] amounted to 0.485.

For “GGGTGTGA (double strand) [8-mer GGGTGTGA]”, the binding signal (PBM E-score (-0.5 to 0.5)) amounted to 0.487 in data set [2] and 0.49 in data set [3].

For “ATGACGTC (double strand) [8-mer ATGACGTC]”, the binding signal (PBM E-score (-0.5 to 0.5)) in data set [7] was 0.468; in data set [5], 0.497; in data set [6], 0.493.

For the sequence “ATGACGTA (double strand) [8-mer ATGACGTA]”, the values for the binding signal (PBM E-score (-0.5 to 0.5)) in data set [7], in data set [5] and in data set [6] were 0.459, 0.498 and 0.49, respectively.

With “ATGAATGA (double strand) [8-mer ATGAATGA]”, in data set [1], the binding signal (PBM E-score (-0.5 to 0.5)) came out at 0.489.

For the sequence “ATATGATG (double strand) [8-mer ATATGATG]”, the binding signal (PBM E-score (-0.5 to 0.5)) in data set [6] stood at 0.486.

In turn, “AACTTGGA (double strand) [8-mer AACTTGGA]” yielded a binding signal (PBM E-score (-0.5 to 0.5)) in data set [4] of 0.473.

For the sequence “CATTCATA (double strand) [8-mer CATTCATA]”, the binding signal (PBM E-score (-0.5 to 0.5)) in data set [1] worked out at 0.474.

Sequence “TGAATTAA (double strand) [8-mer TGAATTAA]” registered a binding signal (PBM E-score (-0.5 to 0.5)) in data set [1] of 0.474.

On to “GGTGTCAA (double strand) [8-mer GGTGTCAA]”, for which the binding signal (PBM E-score (-0.5 to 0.5)) in data set [3] was determined as 0.495.

In the case of “GTGTGAAC (double strand) [8-mer GTGTGAAC]”, the binding signal (PBM E-score (-0.5 to 0.5)) in data set [2] stood at 0.492; in data set [3], 0.485.

Turning to “ACGTCATG (double strand) [8-mer ACGTCATG]”, the binding signal (PBM E-score (-0.5 to 0.5)) in data set [5] came to 0.496; in data set [6], 0.486.

Consider “CTACCAAG (double strand) [8-mer CTACCAAG]”, for which, in data set [4], the binding signal (PBM E-score (-0.5 to 0.5)) was determined as 0.473.

In the case of “GGGTGCGA (double strand) [8-mer GGGTGCGA]”, the binding signal (PBM E-score (-0.5 to 0.5)) in data set [2] turned out to be 0.485.

As to “AGTGTGAA (double strand) [8-mer AGTGTGAA]”, the binding signal (PBM E-score (-0.5 to 0.5)) worked out at 0.496 in data set [2] and 0.494 in data set [3].

Turning to “AGGTGCGA (double strand) [8-mer AGGTGCGA]”, the binding signal (PBM E-score (-0.5 to 0.5)) stood at 0.49 in data set [2] and 0.48 in data set [3].

For the sequence “TGACATCA (double strand) [8-mer TGACATCA]”, the binding signal (PBM E-score (-0.5 to 0.5)) in data set [7] stood at 0.468; in data set [6], 0.49.

Sequence “CCCATTCA (double strand) [8-mer CCCATTCA]” had a binding signal (PBM E-score (-0.5 to 0.5)) in data set [1] of 0.478.

For the sequence “AATGAATG (double strand) [8-mer AATGAATG]”, in data set [1], the binding signal (PBM E-score (-0.5 to 0.5)) is 0.481.

Turning to “TCCATTCA (double strand) [8-mer TCCATTCA]”, in data set [1], the binding signal (PBM E-score (-0.5 to 0.5)) was found to be 0.48.

Take “ACTTGGTA (double strand) [8-mer ACTTGGTA]”: the binding signal (PBM E-score (-0.5 to 0.5)) in data set [4] worked out at 0.472.

In data set [3], “AGGTGTCA (double strand) [8-mer AGGTGTCA]” had a binding signal (PBM E-score (-0.5 to 0.5)) of 0.497.

“GGGTGTCA (double strand) [8-mer GGGTGTCA]” gave a binding signal (PBM E-score (-0.5 to 0.5)) in data set [3] of 0.484.

Take “ATTCACAC (double strand) [8-mer ATTCACAC]”: the binding signal (PBM E-score (-0.5 to 0.5)) came to 0.494 in data set [2] and 0.489 in data set [3].

On to “TGTACCAA (double strand) [8-mer TGTACCAA]”, for which the binding signal (PBM E-score (-0.5 to 0.5)) in data set [4] stood at 0.485.

Sequence “AACTTAGT (double strand) [8-mer AACTTAGT]” registered a binding signal (PBM E-score (-0.5 to 0.5)) in data set [4] of 0.479.

The sequence “TCAATTGA (double strand) [8-mer TCAATTGA]” came in with a binding signal (PBM E-score (-0.5 to 0.5)) in data set [1] of 0.484.

“ATCACACC (double strand) [8-mer ATCACACC]” displayed a binding signal (PBM E-score (-0.5 to 0.5)) in data set [3] of 0.486.

In the case of “AACTTCGC (double strand) [8-mer AACTTCGC]”, the binding signal (PBM E-score (-0.5 to 0.5)) in data set [4] turned out to be 0.467.

For the sequence “AGGTGTTA (double strand) [8-mer AGGTGTTA]”, the binding signal (PBM E-score (-0.5 to 0.5)) in data set [2] is 0.494; in data set [3], 0.497.

“AACATCTG (double strand) [8-mer AACATCTG]” displayed a binding signal (PBM E-score (-0.5 to 0.5)) in data set [8] of 0.481.

In data set [4], “CCAAGTTA (double strand) [8-mer CCAAGTTA]” returned a binding signal (PBM E-score (-0.5 to 0.5)) of 0.495.

In turn, “AAATGAAT (double strand) [8-mer AAATGAAT]” returned a binding signal (PBM E-score (-0.5 to 0.5)) in data set [1] of 0.472.

“ATATGACG (double strand) [8-mer ATATGACG]” returned a binding signal (PBM E-score (-0.5 to 0.5)) in data set [6] of 0.493.

With “ACAGATGG (double strand) [8-mer ACAGATGG]”, the binding signal (PBM E-score (-0.5 to 0.5)) in data set [8] stood at 0.478.

Turning to “ATGAATGG (double strand) [8-mer ATGAATGG]”, in data set [1], the binding signal (PBM E-score (-0.5 to 0.5)) was found to be 0.489.

In data set [4], “CCAAGTTC (double strand) [8-mer CCAAGTTC]” showed a binding signal (PBM E-score (-0.5 to 0.5)) of 0.477.

“ATGACGCG (double strand) [8-mer ATGACGCG]”: the binding signal (PBM E-score (-0.5 to 0.5)) in data set [6] came to 0.488.

In the case of “GGTGCGAA (double strand) [8-mer GGTGCGAA]”, the binding signal (PBM E-score (-0.5 to 0.5)) is 0.494 in data set [2] and 0.48 in data set [3].

Regarding “TCAATGAA (double strand) [8-mer TCAATGAA]”, in data set [1], the binding signal (PBM E-score (-0.5 to 0.5)) turned out to be 0.485.

Take “ATTCGCAC (double strand) [8-mer ATTCGCAC]”: the binding signal (PBM E-score (-0.5 to 0.5)) in data set [2] came to 0.489.

As for “AACTTAGC (double strand) [8-mer AACTTAGC]”, the binding signal (PBM E-score (-0.5 to 0.5)) in data set [4] was 0.493.

“AACATATG (double strand) [8-mer AACATATG]”: the binding signal (PBM E-score (-0.5 to 0.5)) in data set [8] was 0.465.

As for “ACCATCTG (double strand) [8-mer ACCATCTG]”, the binding signal (PBM E-score (-0.5 to 0.5)) in data set [8] was 0.482.

“AACTTGGT (double strand) [8-mer AACTTGGT]”: the binding signal (PBM E-score (-0.5 to 0.5)) in data set [4] stood at 0.496.

In the case of “GTGTGAAA (double strand) [8-mer GTGTGAAA]”, the figures for the binding signal (PBM E-score (-0.5 to 0.5)) in data set [2] and in data set [3] were 0.483 and 0.494, respectively.
